Assay [1] addresses FITC-labeled pSer2 CTD peptide (16-mer, single phosphorylation at Ser2). Nature of the assay: fluorescence anisotropy (FA). Particulars: read at the highest protein concentration, 100 µM, read off a plot. For orientation: In fluorescence polarisation assays a small probe gives low polarisation when free and higher when bound to something large.
Assay [2] addresses FITC-labeled pThr4 CTD peptide (16-mer, single phosphorylation at Thr4). Nature of the assay: fluorescence anisotropy (FA). The following applies: read at the highest protein concentration, 100 µM, read off a plot.
A further assay has as its system pThr^4 (6D7) antibody. As to the kind of experiment: Dot blot of pThr^4 CTD peptide after kinase treatment. It is filed as biochemical. Particulars: pThr^4 CTD peptide (18-mer), 10 μg or 5 μg, kinase-treated vs no-kinase control (fig. S1C). From the text: Another reported Thr^4 antibody masking effect in vitro is observed when Ser^2, two residues upstream of pThr^4, is phosphorylated (pSer^2Pro^3pThr^4Ser^5). Despite the in vitro blocking effect, this potential impediment posed to pThr^4 identification is less concerning under physiological conditions as pSer^2/pThr^4 double phosphorylation is rather rare in cells ([19]). Subsequent biochemical and cellular experiments have shown that, although Ser^2 and Thr^4 phosphorylations occur around the same time during transcription cycle, they tend to occur on different heptads because kinases avoid placing a phosphate on the neighboring Ser^2 when Thr^4 is phosphorylated and vice versa ([19]). […]
Another phosphorylation mark co-occurring with Thr^4 on the same heptad is Tyr1 (accounts for ~5% of doubly phosphorylated heptads) ([19]). […] To corroborate this, we evaluated the possibility that Tyr1 phosphorylation affects pThr^4 detection by treating pThr^4-containing CTD peptide with the Tyr1 kinase, c-Abl (fig. S1B). […]
Serial dilutions of pThr^4 CTD peptide or Dyrk1a/Abl1 kinase-treated pThr^4 CTD peptide were spotted on an activated nitrocellulose membrane. […] The membrane was washed three times and visualized on a LI-COR Odyssey CLx image reader. […]

Assay [3] deals with FITC-labeled pSer2 CTD peptide (16-mer, single phosphorylation at Ser2). Nature of the assay: fluorescence polarisation; CID protein titrated into 10 nM FITC-peptide; 50 mM Tris (pH 8.0), 300 mM NaCl, 10 mM BME; room temperature; triplicate; total binding model.
For assay [4], the target named is FITC-labeled pThr4 CTD peptide (16-mer, single phosphorylation at Thr4). Described as above.
The subject of the next assay is RNA Pol II CTD. Particulars: cited from earlier work. From the text: The reported enrichment of pThr^4pSer^5 double phosphorylation in cells raised concerns for Thr^4 phosphorylation detection as the masking effect by adjacent phosphorylation may block pThr^4 recognition leading to false-negative results ([19]). To address this issue, we explored the possibility of eliminating the masking effect on pThr^4 antibody recognition by selectively removing the interfering phosphate groups on Ser^5 of the CTD. Our prior biochemical and structural analyses have established phosphatase Ssu72 as a highly specific phosphatase for Ser^5 of the CTD, distinguishing Ser^5 from ...

The test system of assay [5] is pSer^2 Pol II in HEK293 nuclear extract. As to the kind of experiment: Western blot, pSer^2 recognition in HEK293 nuclear extract treated with phosphatase. The class given is biochemical, human. The following applies: HEK293 nuclear extract treated with Ssu72, antibody 3E10; vs untreated and inactive Ssu72 mutant.
In assay [6] the target is FITC-labeled pSer2 CTD peptide (16-mer, single phosphorylation at Ser2). As to the kind of experiment: fluorescence polarisation; CID protein titrated into 10 nM FITC-peptide; 50 mM Tris (pH 8.0), 300 mM NaCl, 10 mM BME; room temperature; triplicate; total binding model. This is another data set of the same source.
In assay [7] the target is FITC-labeled pThr4 CTD peptide (16-mer, single phosphorylation at Thr4). The description is as above. The source holds these as a separate data set.
For assay [8], the target named is T1, RNA Pol II CTD peptide CTD peptide (Homo sapiens, UniProt P24928, not fully specified (residue 4); also: pThr4 (heptad position 4, which repeat(s) not given here)).
T1 chain: YSPTSPSYSPTSPS
Nature of the assay: fluorescence anisotropy.

Assay [9] deals with T2, RNA Pol II CTD peptide CTD peptide (Homo sapiens, UniProt P24928, not fully specified (residue 2); also: pSer2 (heptad position 2, which repeat(s) not given here)).
T2 chain: YSPTSPSYSPTSPS
As to the kind of experiment: fluorescence anisotropy.

Where two headings read alike, the source gives them in different places. Where no end group is shown, it is not given here.

“SCAF4-CID (residues 1 to 139) (from UniProt O95104) R112A”: the response in assay [1] (pSer2 CTD peptide, parent: est. 170) was determined as 17 mP; in assay [2] (pThr4 CTD peptide, parent: est. 77), 15 mP.

Consider “RPRD2-CID (residues 19 to 149) (from UniProt Q5VT52) R122A”, for which the response in assay [1] (pSer2 CTD peptide, parent: est. 180) turned out to be 16 mP; in assay [2] (pThr4 CTD peptide, parent: est. 120), 16 mP.

Turning to c-Abl: Tyr1 kinase, the “effect of kinase treatment on pThr^4 antibody detection” value in the assay with pThr^4 (6D7) antibody is reported as “does not affect pThr^4 antibody recognition”.

Consider “RPRD2-CID (residues 19 to 149) (from UniProt Q5VT52 19-149) (domain or fragment)”, for which the results for the Kd in [3] and in assay [4] were 8.7 µM and 6.6 µM, respectively.

For “RPRD1B-CID (residues 2 to 133) (from UniProt Q9NQG5) R106A”, the response in assay [1] (FITC-labeled pSer2 CTD peptide, parent: est. 170) amounted to 8 mP; in assay [2] (FITC-labeled pThr4 CTD peptide, parent: est. 150) it was 8 mP.

In the case of “RPRD1A-CID (residues 2 to 133) (from UniProt Q96P16) R106A”, the response in assay [1] (pSer2 CTD peptide, parent: est. 110) stood at 17 mP; in [2] (pThr4 CTD peptide, parent: est. 87), 25 mP.

B1: Ssu72: phosphatase highly specific for Ser^5 of the CTD (protein)
chain: MTDPSKLAVAVVCSSNMNRSMEAHNFLAKKGFNVRSYGTGERVKLPGMAFDKPNVYEFGTKYEDIYRDLESKDKEFYTQNGLLHMLDRNRRIKKCPERFQDTKEQFDIIVTVEERVYDLVVMHMESMESVDNRPVHVLNVDVVDNAEDALMGAFVITDMINMMAKSTDLDNDIDELIQEFEERRKRVILHSVLFY
modifications: left off: 6xHis, end not stated, state not stated | SUMO, end not stated, state not stated
With B1, in the assay with RNA Pol II CTD (MS and biochemical assays), the “effect on Ser^5 phosphorylation on the CTD” value is given as “effectively eradicating Ser^5 phosphorylation” and the “effect on levels of pSer^2 or pThr^4” value is reported as “no effect”. Besides, the “activity against pSer^7 relative to pSer^5” value with RNA Pol II CTD is “about three magnitudes lower”. The “pSer^2 signal recognition” value in [5] is “no significant difference”.

B2: RPRD1A-CID (residues 2 to 133) (domain or fragment)
chain: SAFSEAALEKKLSELSNSQQSVQTLSLWLIHHRKHSRPIVTVWERELRKAKPNRKLTFLYLANDVIQNSKRKGPEFTKDFAPVIVEAFKHVSSETDESCKKHLGRVLSIWEERSVYENDVLEQLKQALYGDK
B2: the figures for the Kd in [6] and in assay [7] were 13.8 µM and 12.3 µM, respectively.

B3: CHERP CID (protein)
chain: LLEETQLDMNEFDNLLQPIIDTCTKDAISAGKNWMFSNAKSPPHCELMAGHLRNRITADGAHFELRLHLIYLINDVLHHCQRKQARELLAALQKVVVPIYCTSFLAVEEDKQQKIARLLQLWEKNGYFDDSIIQQLQSPALGLGQYQ
For B3, the Kd (usually the constant that tells how readily two partners part at equilibrium) in assay [8] was determined as 3.9 µM; in assay [9], 10.7 µM.

B4: RPRD1B-CID (residues 2 to 133) (domain or fragment)
chain: SSFSESALEKKLSELSNSQQSVQTLSLWLIHHRKHAGPIVSVWHRELRKAKSNRKLTFLYLANDVIQNSKRKGPEFTREFESVLVDAFSHVAREADEGCKKPLERLLNIWQERSVYGGEFIQQLKLSMEDSK
For the molecule B4, the Kd in assay [6] turned out to be 22.8 µM; in [7], 5.3 µM.

B5: SCAF4-CID (residues 1 to 139) (domain or fragment)
chain: MDAVNAFNQELFSLMDMKPPISRAKMILITKAAIKAIKLYKHVVQIVEKFIKKCKPEYKVPGLYVIDSIVRQSRHQFGTDKDVFGPRFSKNITATFQYLYLCPSEDKSKIVRVLNLWQKNGVFKIEIIQPLLDMAAGTS
With B5, the Kd in [6] is 6.7 µM; in assay [7], 8.1 µM.

The record behind these values is PMC11378909, “Thr^4 phosphorylation on RNA Pol II occurs at early transcription regulating 3′-end processing” (Science Advances, 2024).
